According to patent US20050227220A1, “Compositions and Methods for Evaluating and Designing Nuclear Receptor Ligands that Modulate Co-Regulator Affinity” (priority 2002, published 2005):
No end group written: not given here. fluorescein = fluorescein: fluorescein label attached at the N-terminus of the peptide

T1: TRAP220 peptide (amino acids 575-599) (not fully specified; printed as N-terminal biotin in Example 1; label in the polarization assay not specified)
T1 construct: also called TRAP220 575-599
T1 peptide: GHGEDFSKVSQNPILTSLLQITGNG

T2: human PPARα ligand binding domain (amino acids 192-468) (human, UniProt Q07869 192-468)
T2 construct: range 192-468; placed at the N-terminus here; Biotinylated for FRET; also called PPARα LBD
T2 sequence: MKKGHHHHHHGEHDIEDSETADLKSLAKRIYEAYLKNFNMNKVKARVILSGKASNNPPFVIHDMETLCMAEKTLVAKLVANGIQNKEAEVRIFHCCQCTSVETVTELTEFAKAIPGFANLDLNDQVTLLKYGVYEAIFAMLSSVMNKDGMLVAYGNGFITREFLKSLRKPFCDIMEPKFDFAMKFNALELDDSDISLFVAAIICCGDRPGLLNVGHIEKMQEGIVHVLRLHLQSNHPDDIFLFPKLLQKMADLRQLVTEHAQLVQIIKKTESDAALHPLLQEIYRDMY

T3: TRβ ligand binding domain (UniProt P10828 202-461, limits assumed)
T3 construct: also called Thyroid Receptor LBD; TRβ LBD
T3 sequence (looked up): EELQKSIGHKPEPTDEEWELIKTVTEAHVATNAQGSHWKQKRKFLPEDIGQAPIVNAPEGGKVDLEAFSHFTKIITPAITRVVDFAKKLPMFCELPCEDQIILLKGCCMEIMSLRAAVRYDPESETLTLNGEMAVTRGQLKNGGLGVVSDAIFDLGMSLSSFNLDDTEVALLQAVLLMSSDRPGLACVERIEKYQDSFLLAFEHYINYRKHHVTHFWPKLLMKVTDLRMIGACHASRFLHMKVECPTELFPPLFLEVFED

T4: RARα ligand binding domain (amino acids 146-432) (UniProt P10276 146-432)
T4 construct: range 146-432; not shown: His-tag
T4 sequence (looked up): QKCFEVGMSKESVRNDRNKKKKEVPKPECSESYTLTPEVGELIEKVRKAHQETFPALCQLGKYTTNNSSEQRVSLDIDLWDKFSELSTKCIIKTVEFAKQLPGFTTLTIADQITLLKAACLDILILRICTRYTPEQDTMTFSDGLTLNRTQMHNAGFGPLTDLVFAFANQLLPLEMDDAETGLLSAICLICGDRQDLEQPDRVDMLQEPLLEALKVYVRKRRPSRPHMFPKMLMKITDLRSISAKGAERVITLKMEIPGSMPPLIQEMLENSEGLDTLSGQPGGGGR

T5: biotin-NCOR ID-C peptide (NCoR amino acids 2251-2275) (N-terminal biotin)
T5 construct: also called NCOR-derived co-repressor peptide
T5 peptide: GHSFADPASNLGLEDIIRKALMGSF

B1: human PPARγ ligand binding domain (amino acids 206-477) (receptor)
chain: MKKGHHHHHHGPESADLRALAKHLYDSYIKSFPLTKAKARAILTGKTTDKSPFVIYDMNSLMMGEDKIKFKHITPLQEQSKEVAIRIFQGCQFRSVEAVQEITEYAKSIPGFVNLDLNDQVTLLKYGVHEIIYTMLASLMNKDGVLISEGQGFMTREFLKSLRKPFGDFMEPKFEFAVKFNALELDDSDLAIFIAVIILSGDRPGLLNVKPIEDIQDNLLQALELQLKLNHPESSQLFAKLLQKMTDLRQIVTEHVQLLQVIKKTETDMSLHPLLQEIYKDLY
notes: range 206-477; placed at the N-terminus here; Biotinylated for FRET; also called PPARγ LBD
B2: RXRα ligand binding domain (amino acids 225-462) (receptor, UniProt P19793 225-462, looked up)
chain: SANEDMPVERILEAELAVEPKTETYVEANMGLNPSSPNDPVTNICQAADKQLFTLVEWAKRIPHFSELPLDDQVILLRAGWNELLIASFSHRSIAVKDGILLATGLHVHRNSAHSAGVGAIFDRVLTELVSKMRDMQMDKTELGCLRAIVLFNPDSKGLSNPAEVEALREKVYASLEAYCKHKYPEQPGRFAKLLLRLPALRSIGLKCLEHLFFFKLIGDTPIDTFLMEMLEAPHQMT
notes: range 225-462; Biotinylated for FRET; also called RXRα LBD; not shown: His-tag
B3: Fluoroscein-NCOR ID-C peptide (NCoR amino acids 2251-2275) (peptide)
peptide: fluorescein-GHSFADPASNLGLEDIIRKALMGSF
notes: also called NCOR peptide; NCoR 2251-2275
B4: VP16-human PPARα (full length) (other)
chain: LSTAPPTDVSLGDELHLDGEDVAMAHADALDDFDLDMLGDGDSPGPGFTPHDSAPYGALDMADFEFEQMFTDALGIDEYGGMVDTESPLCPLSPLEAGDLESPLSEEFLQEMGNIQEISQSIGEDSSGSFGFTEYQYLGSCPGSDGSVITDTLSPASSPSSVTYPVVPGSVDESPSGALNIECRICGDKASGYHYGVHACEGCKGFFRRTIRLKLVYDKCDRSCKIQKKNRNKCQYCRFHKCLSVGMSHNAIRFGRMPRSEKAKLKAEILTCEHDIEDSETADLKSLAKRIYEAYLKNFNMNKVKARVILSGKASNNPPFVIHDMETLCMAEKTLVAKLVANGIQNKEAEVRIFHCCQCTSVETVTELTEFAKAIPGFANLDLNDQVTLLKYGVYEAIFAMLSSVMNKDGMLVAYGNGFITREFLKSLRKPFCDIMEPKFDFAMKFNALELDDSDISLFVAAIICCGDRPGLLNVGHIEKMQEGIVHVLRLHLQSNHPDDIFLFPKLLQKMADLRQLVTEHAQLVQIIKKTESDAALHPLLQEIYRDMY
notes: also called VP16 full length PPARα
B5: human PPARδ ligand binding domain (amino acids 139-441) (receptor)
chain: MKKGHHHHHHGSHNAIRFGRMPEAEKRKLVAGLTANEGSQYNPQVADLKAFSKHIYNAYLKNFNMTKKKARSILTGKASHTAPFVIHDIETLWQAEKGLVWKQLVNGLPPYKEISVHVFYRCQCTTVETVRELTEFAKSIPSFSSLFLNDQVTLLKYGVHEAIFAMLASIVNKDGLLVANGSGFVTREFLRSLRKPFSDIIEPKFEFAVKFNALELDDSDLALFIAAIILCGDRPGLMNVPRVEAIQDTILRALEFHLQANHPDAQYLFPKLLQKMADLRQLVTEHAQMMQRIKKTETETSLHPLLQEIYKDMY
modifications: Biotinylated (site not stated) in the FRET assays; unlabelled in fluorescence polarization and SPR.
notes: placed at the N-terminus here; Biotinylated for FRET; also called PPARδ LBD

Tests used:
[1] = molecular target: B3; assay: fluorescence polarization, with GW1929
[2] = molecular target: T1, TRAP220 peptide (amino acids 575-599); assay: fluorescence polarization, with GW1929
[3] = molecular target: B3; assay: fluorescence polarization, with rosiglitazone
[4] = molecular target: T1, TRAP220 peptide (amino acids 575-599); assay: fluorescence polarization, with rosiglitazone
[5] = molecular target: B1; assay: FRET, biotinylated PPAR LBD and RXRα LBD on labelled streptavidin
[6] = molecular target: B5; assay: as above
[7] = molecular target: T2, human PPARα ligand binding domain …; assay: as above
[8] = molecular target: T3, TRβ ligand binding domain; assay: fluorescence polarization, apparent affinity, with T3
[9] = molecular target: B1; assay: fluorescence polarization, apparent affinity, no ligand
[10] = molecular target: T3, TRβ ligand binding domain; assay: as above
[11] = molecular target: B1; assay: fluorescence polarization, apparent affinity, with GW1929
[12] = molecular target: B5; assay: as above
[13] = molecular target: B1; assay: fluorescence polarization, apparent affinity, with rosiglitazone
[14] = molecular target: B5; assay: as above
[15] = molecular target: B1; assay: fluorescence polarization, 10 nM fluorescein peptide, LBD titrated, no ligand
[16] = molecular target: B5; assay: as above
[17] = molecular target: B2; assay: as above
[18] = molecular target: T6, ERβ ligand binding domain (amino acids 257-530) (UniProt Q92731 257-530); assay: as above
T6 construct: range 257-530; not shown: His-tag
T6 sequence (Q92731 257-530 limits assumed): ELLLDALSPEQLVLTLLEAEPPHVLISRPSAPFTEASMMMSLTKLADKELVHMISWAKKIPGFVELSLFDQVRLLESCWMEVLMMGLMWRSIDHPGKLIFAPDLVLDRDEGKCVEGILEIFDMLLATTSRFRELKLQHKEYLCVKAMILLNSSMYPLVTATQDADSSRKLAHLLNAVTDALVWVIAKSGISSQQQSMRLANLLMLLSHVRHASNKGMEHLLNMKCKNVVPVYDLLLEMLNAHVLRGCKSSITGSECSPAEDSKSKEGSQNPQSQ

[19] = molecular target: T3, TRβ ligand binding domain; assay: as above
[20] = molecular target: T4, RARα ligand binding domain (amino acids …); assay: as above
[21] = molecular target: T2, human PPARα ligand binding domain …; assay: as above
[22] = molecular target: T7, GAL4-NcoR (1944-end) (UniProt P04386 1-147; O75376 1944-2440); assay: mammalian two-hybrid in CV-1 cells
T7 construct: range 1-147;range 1944-end; Two-hybrid construct; also called larger fragment of NCoR (1944-end)

[23] = molecular target: T5, biotin-NCOR ID-C peptide (NCoR amino …); assay: FRET, with GW1929
[24] = molecular target: T5, biotin-NCOR ID-C peptide (NCoR amino …); assay: FRET, with GW7845

B1
fold decrease in affinity with GW1929 against no ligand [1]: 5 fold | fold increase in affinity with GW1929 against no ligand [2]: 5 fold | fold decrease in affinity with rosiglitazone against no ligand [3]: ~4 fold | fold increase in affinity with rosiglitazone against no ligand [4]: ~3 fold

B2
binding result [5]: binds | binding result [6]: binds | binding result [7]: binds

B3
Kd [8]: 6.2 µM | Kd [9]: 1.2 µM | Kd [10]: 0.72 µM | Kd [11]: 6.7 µM | Kd [12]: 0.44 µM | Kd [13]: 4.7 µM | Kd [14]: 5 µM | Kd [15]: 1.3 µM | Kd [16]: 5.7 µM | Kd [17]: 25 µM | Kd [18]: 37 µM | Kd [19]: 1.3 µM | Kd [20]: 2 µM | Kd [21]: 6.1 µM

B4
binding result [22]: binds

B5
log α (ratio of cofactor affinities with and without saturating ligand) [23]: 0.52 | log α (ratio of cofactor affinities with and without saturating ligand) [24]: 0.14 | fold increase in affinity with GW1929 against no ligand [1]: 12 fold
